Source: patent US20240174744A1 (SCIRHOM, published 2024)
Substitutions are numbered along the chain they refer to.

B1: antibody 34 (antibody, V domains shown)
VH: QVTLKESGPGILQPSQTLSLTCSFSGFSLSTFSLGVGWIRQSSGKGLEWLAHIWWDDEKYYNPALKSRLTISKDTSKNQVFLKIANVDAADTATYYCARAYYSKSYYALDYWGQGTSVTVSS
VL: DIQMTQSPSSLSASLGERVSLTCRASQEISGYLSWLQQKPDGTIKRLIYAASTLDSGVPKRFSGSRSGSDYSLAISSLESEDFADYYCLQYANFPFTFGSGTKLEIK
notes: Mouse IgG, kappa light chain; also called clone #34; m34
B2: antibody 43 (antibody, V domains shown)
VH: QVALKESGPGILQPSQTLSLTCSFSGFSLSTFGMGVGWIRQSSGKGLEWLANIWWDDDKYYNPALKSRLTISKDASKNQAFLKIANVDTADTATYYCARIGNYGSNYWYFDVWGTGTTVTVSS
VL: QIVLTQSPAIMSASPGERVTMTCSANSRISYMYWYQQKPGSSPRLLIYDTSNLASGVPVRFSGSGSGTSYSLTISRMEAEDAATYNCQQWSSYPLTFGAGTKLELK
notes: Mouse IgG, kappa light chain; also called clone #43
B3: antibody 42 (antibody, V domains shown)
VH: B2 VH with A3T, F24L, M34R, S42P, N52H, D58E, A75T, A80V, K83R, G101Q
VL: B2 VL with Q1L, R18K, S24G, N26T, Y33F, L45V, M77V, A82V, N86Y, S91N
notes: Mouse IgG, kappa light chain; also called clone #42; m42
B4: antibody 44 (antibody, V domains shown)
VH: B2 VH with A3T, S42P, G44E, N52H, A75T, A80I, A85T, D91E, A98S
VL: QIVLTQSPAVMSASPGEKVTMTCTASSSVYYMYWYQQTPGSSPRLLIYDTSNLASGVPVRFSGSGSGTSYSLTISRMEAEDAATYYCQQWNTYPLTFGAGTKLELK
notes: Mouse IgG, kappa light chain; also called clone #44; m44
B5: antibody 22 (antibody, V domains shown)
VH: B2 VH with A3T, S42P, N52H, D58E, P63S, D74A, A75T, A80V, G101S, D111N
VL: B4 VL with I2V, V10L, T24S, S26G, Y30S, T38K, L45V, V59A, S62T, T92S
notes: Mouse IgG, kappa light chain; also called clone #22; m22
B6: antibody 51 (antibody, V domains shown)
VH: QVQLQQSGAELVKPGASVKISCKASGYTFSNYWMNWVKQRPGKGLEWIGQIYPGDGDTKYNGKFKNKATLTADKSSSTAYMQFSSLTSEDSAVYFCARGDLVFVYWGLGTLVTVSA
VL: DVQITQSPSYLAVSPGETITINCRASKNIRKYLAWYQEKPGKTNKLLIYSGSTSQSGVPSRFSGSGSGTDFTLTISSLEPEDFAMYYCQQHNEYPYTFGGGTKLEIK
notes: Mouse IgG, kappa light chain; also called clone #51
B7: antibody 48 (antibody, V domains shown)
VH: QVQLQQSGTELVRPGTSVKVSCKASGYAFTNYLIEWVKQRPGQGLEWIGVINPGSGFTKYNEKFKGKATLTADKSSSTVYMHLSSLTSEDSAVYFCARGLYRAMDYWGQGTSVTVSS
VL: DIQMTQSPASQSASLGESVTITCLASQTIATWLAWYQQKPGKSPQLLIYGATTLADGVPSRFSGGGSGTKFSFKISSLQAEDFVSYYCQQLYSTPYTFGGGTKLEIK
notes: Mouse IgG, kappa light chain; also called clone #48; purified antibody 48
B8: antibody 47 (antibody, V domains shown)
VH: B7 VH with T9A, K59N, T69I, T71N, V79A, H82Q, S84I, G99D, Y101K, Y106H
VL: B7 VL with A30G, Y49H, G50A, T53S, G65S, L91I, T94S
notes: Mouse IgG, kappa light chain; also called clone #47
B9: antibody 50 (antibody, V domains shown)
VH: B7 VH with T9A, T16A, T30S, V79A, H82Q
VL: B7 VL with A30G, G50A, T52A, T53S, S85N, L91I
notes: Mouse IgG, kappa light chain; also called clone #50; purified antibody 50

Molecular target: T1, human iRhom2 (inactive rhomboid protein 2, isoform 1), endogenously expressed on human cells (human, UniProt Q6PJF5 1-856)
T1 sequence: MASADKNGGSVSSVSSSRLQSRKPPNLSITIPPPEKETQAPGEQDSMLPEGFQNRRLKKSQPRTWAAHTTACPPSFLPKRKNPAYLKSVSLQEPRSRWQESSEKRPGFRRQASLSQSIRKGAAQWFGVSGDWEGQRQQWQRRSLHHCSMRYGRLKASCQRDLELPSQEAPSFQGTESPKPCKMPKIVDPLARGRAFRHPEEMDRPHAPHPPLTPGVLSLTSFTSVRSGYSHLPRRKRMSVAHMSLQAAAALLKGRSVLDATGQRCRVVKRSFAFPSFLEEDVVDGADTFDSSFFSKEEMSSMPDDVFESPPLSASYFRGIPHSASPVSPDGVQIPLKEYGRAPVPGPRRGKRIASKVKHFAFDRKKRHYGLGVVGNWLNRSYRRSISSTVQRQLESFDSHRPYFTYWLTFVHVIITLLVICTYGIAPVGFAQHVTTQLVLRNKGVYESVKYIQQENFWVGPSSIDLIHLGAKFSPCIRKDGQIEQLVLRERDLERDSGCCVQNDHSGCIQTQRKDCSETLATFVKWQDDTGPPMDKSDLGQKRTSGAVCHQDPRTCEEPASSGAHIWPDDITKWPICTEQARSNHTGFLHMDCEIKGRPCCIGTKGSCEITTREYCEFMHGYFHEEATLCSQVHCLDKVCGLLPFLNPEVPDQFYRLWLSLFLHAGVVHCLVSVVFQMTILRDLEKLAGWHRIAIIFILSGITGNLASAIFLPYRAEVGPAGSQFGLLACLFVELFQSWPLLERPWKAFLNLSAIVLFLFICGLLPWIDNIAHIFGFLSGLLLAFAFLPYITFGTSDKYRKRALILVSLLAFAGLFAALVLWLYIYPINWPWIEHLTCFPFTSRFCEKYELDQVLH
Test: cell-based or functional assay

| Binder | inhibition of LPS-induced release of TNFα from THP-1 cells, 10 µg/ml, antibody purified from hybridoma | inhibition of LPS-induced release of TNFα from THP-1 cells, recombinant antibody | inhibition of PMA-induced release of HB-EGF from THP-1 cells, 3 µg/ml | inhibition of PMA-induced release of HB-EGF from U-937 cells | inhibition of PMA-induced release of IL-6R from THP-1 cells, 1 µg/ml | inhibition of PMA-induced release of IL-6R from U-937 cells, 1 µg/ml | inhibition of PMA-induced release of IL-6R from U-937 cells, 3 µg/ml | inhibition of PMA-induced release of TNFα from U-937 cells, 1 µg/ml | inhibition of PMA-induced release of TNFα from U-937 cells, 3 µg/ml | inhibition of PMA-induced release of TGFα from PC3 cells, 1 µg/ml |
| --- | --- | --- | --- | --- | --- | --- | --- | --- | --- | --- |
| B1 | 27.3 % inhibition | 73.8 % inhibition | 64.2 % inhibition | 98.2 % inhibition | 71.1 % inhibition | 69.3 % inhibition | 74.6 % inhibition | 68.6 % inhibition | 79.9 % inhibition |  |
| B2 | 74.8 % inhibition | 78.5 % inhibition |  |  | 72.9 % inhibition | 76.1 % inhibition |  | 78.3 % inhibition |  | 12.4 % inhibition |
| B3 | 76.7 % inhibition | 75.9 % inhibition | 76.6 % inhibition | 104 % inhibition | 85.9 % inhibition | 80.8 % inhibition | 84.4 % inhibition | 94.5 % inhibition | 94.1 % inhibition | 14.3 % inhibition |
| B4 | 32.2 % inhibition | 73.2 % inhibition | 67.5 % inhibition | 100 % inhibition | 73 % inhibition | 71.8 % inhibition | 82 % inhibition | 76.5 % inhibition | 86.3 % inhibition | 14.1 % inhibition |
| B5 | 78.8 % inhibition | 78.4 % inhibition | 77.7 % inhibition | 101 % inhibition | 67.4 % inhibition | 74.5 % inhibition | 79 % inhibition | 86.1 % inhibition | 93.1 % inhibition | 12.7 % inhibition |

Same assay, conditions: not given

| Binder | inhibition of LPS-induced release of TNFα from PBMCs of healthy donors, 1 µg/ml | inhibition of LPS-induced release of TNFα from human macrophages of healthy donors | inhibition of PMA-induced release of HB-EGF from PBMCs of healthy donors, 1 µg/ml | inhibition of PMA-induced release of IL-6R from PBMCs of healthy donors, 1 µg/ml |
| --- | --- | --- | --- | --- |
| B3 | 77 % inhibition | 93.2 % inhibition | 77.6 % inhibition | 85 % inhibition |
| B5 | 72.8 % inhibition | 78.8 % inhibition | 56.5 % inhibition | 79.3 % inhibition |

Molecular target: T2, dog iRhom2 full length wild type, C-terminally tagged with 3 consecutive copies of the T7 epitope (dog, UniProt Q00M95 1-827)
T2 construct: whole, on cells; also called Dog-iR2-FL-WT-T7
T2 sequence: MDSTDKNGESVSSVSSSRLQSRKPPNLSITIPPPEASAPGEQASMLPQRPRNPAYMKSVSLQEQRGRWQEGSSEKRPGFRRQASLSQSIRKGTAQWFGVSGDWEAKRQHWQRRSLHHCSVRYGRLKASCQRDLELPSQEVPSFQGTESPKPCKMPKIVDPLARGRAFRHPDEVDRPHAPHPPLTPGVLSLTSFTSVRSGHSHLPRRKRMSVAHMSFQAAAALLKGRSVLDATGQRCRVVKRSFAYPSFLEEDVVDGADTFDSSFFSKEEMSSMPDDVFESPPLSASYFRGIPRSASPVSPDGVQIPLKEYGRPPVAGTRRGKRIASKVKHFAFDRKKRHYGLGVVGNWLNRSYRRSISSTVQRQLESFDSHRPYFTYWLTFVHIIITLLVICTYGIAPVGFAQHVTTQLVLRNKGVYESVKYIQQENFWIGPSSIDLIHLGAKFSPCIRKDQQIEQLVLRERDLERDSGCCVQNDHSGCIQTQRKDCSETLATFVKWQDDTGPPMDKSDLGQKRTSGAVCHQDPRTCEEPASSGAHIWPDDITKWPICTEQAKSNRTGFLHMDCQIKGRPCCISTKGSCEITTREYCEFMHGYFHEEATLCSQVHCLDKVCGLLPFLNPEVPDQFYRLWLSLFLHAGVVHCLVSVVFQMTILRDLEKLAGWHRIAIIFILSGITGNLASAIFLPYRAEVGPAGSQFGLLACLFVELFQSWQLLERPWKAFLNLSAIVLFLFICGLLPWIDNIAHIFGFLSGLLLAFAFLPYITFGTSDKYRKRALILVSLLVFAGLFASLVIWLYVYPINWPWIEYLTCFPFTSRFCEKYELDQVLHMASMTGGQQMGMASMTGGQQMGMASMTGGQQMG
Test: FACS, MEF-DKO-Dog-iR2-FL-WT-T7 cells
Protocol: In brief, immortalized MEF-DKO-EV control cells, MEF-DKO-rhesus-iR2-FL-WT-T7 cells, MEF-DKO-cyno-iR2-FL-WT-T7 cells, MEF-DKO-dog-iR2-FL-WT-T7 cells and MEF-DKO-rabbit-iR2-FL-WT-T7 cells, as well as their respective iRhom1 counterparts, were harvested with 10 mM EDTA in PBS, washed and resuspended in FACS buffer (PBS, 3% FBS, 0.05% sodium azide), and seeded in Nunc U-bottom 96-well plates (Thermo Fisher Scientific, USA) at approximately 3×10⁵ cells per well. To pellet cells and remove supernatants, the plates were centrifuged at 1,500 rpm and 4° C. for 3 minutes. For primary staining, cells were resuspended in 100 μl per well of either FACS buffer alone (controls), mouse monoclonal anti-T7 IgG (Merck Millipore, USA) at 3 μg/ml FACS buffer or the antibodies of the present disclosure also at 3 μg/ml FACS buffer and incubated on ice for 1 hour. Afterwards, plates were centrifuged at 1,500 rpm and 4° C. for 3 minutes and washed twice with 200 μl per well of FACS buffer. For secondary staining, cells were spun down and resuspended in 100 μl per well of PE-conjugated goat anti-mouse IgG F(ab′)2 detection fragment (Dianova, Germany) diluted 1:100 in FACS buffer. Protected from light, the cell suspensions were incubated on ice for 1 hour. Plates were then centrifuged at 1,500 rpm and 4° C. for 3 minutes and washed three times with 200 μl per well of FACS buffer. Finally, cells were resuspended in 150 μl per well of FACS buffer and analyzed using a BD Accuri™ C6 Plus flow cytometer (Becton Dickinson, Germany).

| Binder | binding result |
| --- | --- |
| B6 | binds |
| B1 | binds |
| B7 | binds |
| B8 | binds |
| B9 | binds |
| B2 | binds |
| B3 | binds |
| B4 | binds |
| B5 | binds |
